Assay results as given in patent publication US20240002497A1 (Merck Sharp & Dohme, published 2024).

Tests used:
[1] = molecular target: T1, huNav1.7α + β1-β2-β3 (human, UniProt Q15858 1-1988; A5A6L6 19-218; O60939 30-215; Q2KI11 23-215); test: binding FACS, CHO FlpIn cells
T1 construct: Cell line (CHO FlpIn, HEK FlpIn, transient HEK293T) is named under assay; also called huNav1.7-beta1-beta2-beta3; human Nav1.7α with Navβ1, Navβ2 and Navβ3
Procedure: (§1) Binding of the ISVDs to cell-expressed Nav1.7α was detected via murine anti-Flag (Sigma, catalog #F1804). Briefly, cells were resuspended in FACS buffer (PBS, 10% FBS, NaN₃) and transferred to a 96-well V-bottom plate at 1×10^5 cells/well. Purified FLAG3-tagged ISVD was diluted in FACS buffer and added to the cells for 30 minutes at 4° C. […] Prior to the read-out, the samples were resuspended in 1 μg/mL propidium iodide (Sigma, catalog #P4170) to exclude dead cells. Between each step, the cells were centrifuged for 5 minutes at 200 grams and washed with 100 μL/well FACS buffer.
(§2) Based on the huNav1.7α model (as described above) the following huNav1.7α-rhNav1.7α polymorphisms can be allocated to the extracellular part of DI: N146S, F276V, R277Q, E281V and V331M. The first of the residues is in DI S1-S2 whereas the latter four residues belong to DI S5-S6. FACS binding studies (as described above) were performed to stable CHO FlpIn cell lines expressing different variants of huNav1.7+β1−β2−β3 each including one of the four possible extracellular huNav1.7α-rhNav1.7α polymorphisms in the DI S5-S6 region: F276V, R277Q, E281V and V331M (Table 23 and FIGS. 22A-22F). Individual polymorphisms were each sufficient to abolish the binding of F0103265B04, F0103362B08, F010301080, and F0103262B06 to huNav1.7α, recapitulating the absence of binding on rhNav1.7α. F0103262CO2, F0103275B05 and F0103387G05 are more subtly affected in terms of EC50 or Bmax by some of the polymorphisms. None of the individual DI S5-S6 polymorphisms by themselves appear to have an impact on the binding of the two rhNav1.7α cross-reactive ISVDs F0103387G04 and F0103464B09. In addition, no effect on binding of the two ISVDs was observed (data not shown) for the three extracellular DIV VSD huNav1.7α-rhNav1.7α polymorphisms Q1530P, H1531Y and E1534D (FIG. 22G).

[2] = molecular target: T2, rhNav1.7α + β1-β2-β3 (rhesus monkey); test: binding FACS, CHO FlpIn cells
T2 construct: also called rhNav1.7-beta1-beta2-beta3; rhesus Nav1.7α
Procedure: as §1, §2

[3] = molecular target: T3, huNav1.7α(F276V) + β1-β2-β3 (human, UniProt Q15858 1-1988; A5A6L6 19-218; O60939 30-215; Q2KI11 23-215); test: binding FACS, CHO FlpIn cells
T3 construct: polyprotein as encoded, P2A sites liberate the subunits; the entry already carries F276V; also called huNav1.7(F276V)-beta1-beta2-beta3
Procedure: as §1, §2

[4] = molecular target: T4, huNav1.7α(R277Q) + β1-β2-β3 (human); test: binding FACS, CHO FlpIn cells
T4 construct: polyprotein as encoded; the entry already carries R277Q; also called huNav1.7(R277Q)-beta1-beta2-beta3
Procedure: as §1, §2

[5] = molecular target: T5, huNav1.7α(E281V) + β1-β2-β3 (human); test: binding FACS, CHO FlpIn cells
T5 construct: polyprotein as encoded; the entry already carries E281V; also called huNav1.7(E281V)-beta1-beta2-beta3
Procedure: as §1, §2

[6] = molecular target: T6, huNav1.7α(V331M) + β1-β2-β3 (human); test: binding FACS, CHO FlpIn cells
T6 construct: polyprotein as encoded; the entry already carries V331M; also called huNav1.7(V331M)-beta1-beta2-beta3
Procedure: as §1, §2

[7] = molecular target: T7, huNav157chim4 + β1-β2-β3 (human, UniProt Q15858 44-1988; A5A6L6 19-218; O60939 30-215; Q2KI11 23-215); test: FACS, transiently transfected HEK293T cells
T7 construct: DII, DIII, DIV from Nav1.7α, DI from Nav1.5α; also called huNav157 chimera 4
Procedure: as §1
(§3) FACS binding studies (as described above) were performed on HEK293T cells transiently transfected with expression vectors encoding a huNav1.7α or rhNav1.7α fused at the C-terminus via a P2A viral peptide linker to a single polypeptide encoding sodium channel beta subunits Navβ1, Navβ2, and Navβ3 in tandem (β1-β2-β3; SEQ ID NO:21). Similarly, HEK293T cells transiently transfected with expression vectors encoding chimeric variants of huNav1.7α in which individual domains are replaced by their huNav1.5α counterparts (chimeras 1 to 4 in FIG. 16) or with chimeric variants of huNav1.5 in which individual domains are replaced by their huNav1.7α counterparts (chimeras 5 to 8 in FIG. 16) fused at the C-terminus via a P2A viral peptide linker to β1-β2-β3 as above. See Table 7 for description of the expression vectors encoding the chimeras, Table 21 and FIG. 16).

[8] = molecular target: T8, huNav157chim5 + β1-β2-β3 (human); test: FACS, transiently transfected HEK293T cells
T8 construct: DI, DII, DIII from Nav1.5α, DIV from Nav1.7α; also called huNav157 chimera 5
Procedure: as §1, §3

[9] = molecular target: T9, huNav157chim6 + β1-β2-β3 (human); test: FACS, transiently transfected HEK293T cells
T9 construct: DI, DII, DIV from Nav1.5α, DIII from Nav1.7α; also called huNav157 chimera 6
Procedure: as §1, §3

[10] = molecular target: T10, huNav157chim7 + β1-β2-β3 (human); test: FACS, transiently transfected HEK293T cells
T10 construct: DI, DIII, DIV from Nav1.5α, DII from Nav1.7α; also called huNav157 chimera 7
Procedure: as §1, §3

[11] = molecular target: T11, huNav157chim12 + β1-β2-β3 (human, UniProt Q15858 1-1988; A5A6L6 19-218; O60939 30-215; Q2KI11 23-215); test: FACS, transiently transfected HEK293T cells
T11 construct: DI S5-S6 from Nav1.5α, rest Nav1.7α; also called huNav157 chimera 12
Procedure: as §1, §3

[12] = molecular target: T1, huNav1.7α + β1-β2-β3; test: competition FACS, HEK FlpIn cells, vs EC30 of CMYC3-F0103265B04
Procedure: Competition FACS assays were performed with CMYC3-tagged ISVD F0103265B04 or F0103275B05(N93R) affinity maturation variant on a HEK FlpIn huNav1.7α+β1−β2−β3 transgenic cell line. Briefly, cells were resuspended in FACS buffer (PBS, 2% FBS, 0.05% NaN₃) and 1×10⁵ cells/well were transferred to 96-well V-bottom plates. Cells were subsequently resuspended in a 100 μL mixture of purified ISVD (dilution series) and CMYC3-tagged ISVD F0103265B04 (at a concentration equivalent to EC30) followed by incubation for 1.5 hours at 4° C. […] Between each step, the cells were centrifuged for 5 minutes at 200 g and washed with 100 μL/well FACS buffer. Prior to the read-out, the samples were resuspended in 5 nM TOPRO3 (Molecular probes, catalog #T3605) to exclude dead cells. F0103262CO2, F0103262B06, F0103265A11, F0103265B04, F0103275B05, F0103362B08, and F0103387G04 all compete with F0103265B04 for binding to huNav1.7α, in contrast to an irrelevant control ISVD (IRR) (see Table 21 and FIG. 15A, FIG. 15B, FIG. 15C, and FIG. 15D).

Binder | EC50 [1] [nM] | binding result [2] | binding result [3] | EC50 [4] [nM] | EC50 [5] [nM] | binding result [6] | binding result [7] | binding result [8] | binding result [9] | binding result [10] | binding result [11] | IC50 [12] [nM] | EC50 [3] [nM] | EC50 [6] [nM] | binding result [4] | binding result [5]
F0103262C02 (VHH, entry includes the FLAG-HIS6 tag; also called F0103262C02 (parental)-FLAG-HIS6; F103262CO2) VHH: EVQLVESGGGLVQAGGSLTLSCAASGLPFGLYILGWIRRAPGKERDFVAAISRSGRDTVYANSVKGRFTISRDNAKNMVYLRMDNLRPEDTAAYYCAVDSVPRGTPTITESEYAIWGQGTLVTVSS | 290 | no binding | – | 450 | 240 | – | no binding (tested: 1 µM) | no binding (tested: 1 µM) | no binding (tested: 1 µM) | no binding (tested: 1 µM) | no binding (tested: 1 µM) | 530 | 210 | 86 | – | –
F0103262B06 (VHH, entry includes the FLAG-HIS6 tag; also called F0103262B06 (parental)-FLAG-HIS6) VHH: EVQLVESGGGLVQPGGSLRLSCAGSTRTFSTYAMGWFRQAPGREREFVAHINFSGSSTRYADSVKGRFTISRDNAKNMGYLQMNSLKPEDTAVYYCAARWVAGPPRYDYEYWGQGTLVTVSS | 47 | no binding | no binding | – | – | – | no binding (tested: 1 µM) | no binding (tested: 1 µM) | no binding (tested: 1 µM) | no binding (tested: 1 µM) | no binding (tested: 1 µM) | 49 | – | 63 | no binding | no binding

The next lines start with the values.

EC50 [1] [nM] | binding result [2] | binding result [3] | EC50 [4] [nM] | EC50 [5] [nM] | binding result [6] | binding result [7] | binding result [8] | binding result [9] | binding result [10] | binding result [11] | IC50 [12] [nM] | EC50 [3] [nM] | EC50 [6] [nM] | binding result [4] | binding result [5] | Binder
9.2 | no binding | no binding | 7.1 | 7.5 | no binding | no binding (tested: 1 µM) | no binding (tested: 1 µM) | no binding (tested: 1 µM) | no binding (tested: 1 µM) | no binding (tested: 1 µM) | 18 | – | – | – | – | F0103265B04 (VHH, entry includes the FLAG-HIS6 tag; also called F0103265B04 (parental)-FLAG-HIS6) VHH: EVQLVESGGGLVQPGGSLRLSCAAPSFIFSNNYMEWYRQAPGKQRDWVARITGRGNTNYLDSVKGRFTISRDDAKNTVYLEIDSLKPEDTAVYYCSALWYGGRAWGKGTLVTVSS
– | – | – | – | – | – | no binding (tested: 1 µM) | no binding (tested: 1 µM) | no binding (tested: 1 µM) | no binding (tested: 1 µM) | no binding (tested: 1 µM) | 75 | – | – | – | – | F0103265A11 (VHH, entry includes the FLAG-HIS6 tag; also called F0103265A11 (parental)-FLAG-HIS6) VHH: EVQLVESGGGLVQPGGSLRLSCAASGMLFNANTQGWYRQAPGKQRELVAFIFSGGYTNYVDSVKGRFTISRDNAKRTMYLQMNSLKPEDSAIYYCSLSRYLGQGTLVTVSS
